Biological target: N-His6-fortilin (human) (UniProt P13693)
Experiment: SPR; Biacore 3000, 25 °C, HBS-EPS (0.01 M HEPES, 0.5 M NaCl, 3 mM EDTA, 0.005% Tween 20, pH 7.4), 20 μL/min; forms of rh-fortilin amine-coupled to a CM5 chip; rh-TGF-β1 injected (0 to 200 nM; 100 nM for scouting)

N-His6-fortilin (human), sequence (P13693 whole entry): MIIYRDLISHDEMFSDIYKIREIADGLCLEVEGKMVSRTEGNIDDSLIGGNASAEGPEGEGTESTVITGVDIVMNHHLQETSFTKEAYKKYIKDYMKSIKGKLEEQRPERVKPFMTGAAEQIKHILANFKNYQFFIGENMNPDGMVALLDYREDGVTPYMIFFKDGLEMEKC

## recombinant human TGF-β1 produced in-house (ligand)
  Kd: 210 nM
